Data reported in patent US12668821B2, “Enzymatic production of glucaric acid from glucuronic acid” (THE GOVERNING COUNCIL OF THE UNIVERSITY OF TORONTO, priority 2019, dated 2026).
Like-named read-outs stand apart in the source and are kept apart here.

Assays:
[1] = Activity screening of GOOX variants and glucose oxidase on GlcA; format: biochemical; settings: enzyme 16 nM, 37° C., 10 mM GlcA (FIG. 11 legend; b102 says 100 mM), 100 mM Tris pH 8.0 (GOOX variants) or 50 mM sodium acetate pH 5.0 (GO)
Method: (§1) FIG. 11: Activity screening of GOOX variants and glucose oxidase (GO) on GlcA and MeGlcA substrates. The enzymes (16 nM) were assayed at 37° C. with 10 mM GlcA and 1 mM MeGlcA in 100 mM Tris buffer pH 8.0 (for GOOX variants) or 50 mM sodium acetate pH 5.0 (for GO). The dotted line indicates the activity of GOOX-VN for MeGlcA for ease of comparison. “CtCBM22A-wtGOOX” and “CtCBM22A-Y300A” represent fusion proteins where the C terminus of the xylan-binding protein CtCBM22A (described in Vuong and Master, 2014) is fused to the N terminus GOOX.
(§2) The specific activity of GOOX-Y300A (16 nM) on MeGlcA and GlcA (1 mM) was measured in 50 mM Tris buffer pH 8.0 at 40° C. The amount of methyl glucaric acid was determined by measuring the release of H2O2 using a previously published colorimetric assay (Lin et al., 1991). The kinetics of GOOX-Y300A on these acidic sugars were measured at the same condition, but using up to 60 mM MeGlcA and GlcA and in 0.3 M Tris buffer pH 8.0.

[2] = Activity screening of GOOX variants and glucose oxidase on MeGlcA; format: biochemical
Method: as §1, §2

[3] = Kinetics of GOOX-Y300A on MeGlcA (H2O2 colorimetric assay); format: biochemical; settings: up to 60 mM MeGlcA, 0.3 M Tris buffer pH 8.0, 40° C.
Method: as §2
There was a dose response for the production of methyl glucaric acid, as the relative abundance of methyl glucaric acid increased when the substrate concentration was raised from 1 mM to 10 mM.

[4] = MeGlcA oxidation by GOOX-Y300A, substrate consumption by HPAEC-PAD; format: biochemical; settings: after 24 h, 300 mM Tris buffer, 60 mM MeGlcA, based on substrate consumption
Excerpt: Reaction samples were vacuum-filtered using 0.22-μm, PVDF filter plates (Millipore, USA) with a Tecan liquid handler (500 mbar) (Tecan Trading AG, Switzerland). The flow-through was collected to Nunc™ 96-well polypropylene microplates (Thermo Fisher Scientific, USA), and covered with Nunc™ 96-well silicone cap mats. The presence of acidic sugars was detected using an ICS5000 HPAEC-PAD system (Dionex, USA) with a CarboPac PA1 (2×250 mm) analytical column (Dionex, USA). The HPAEC-PAD samples were eluted at 0.25 mL/min using NaOAc gradient (0-0.5 M) in 0.1 M NaOH. Chromatograms were analyzed using Chromeleon 7.2 (Dionex, USA).
In an attempt to improve the oxidation of GOOX-Y300A, the ionic strength of the Tris buffer was increased to 300 mM and the concentration of MeGlcA was brought up to 60 mM, higher than its Km. NSI-MS confirmed an increase in the intensity ratio of methyl glucaric acid over MeGlcA (FIG. 9). […] Provided that a similar xylan source was used, the conversion yield reported from the 3-enzyme pathway by Lee et al. (2016) (Lee et al., 2016a) was estimated ca. 20%, as determined by measuring NADH absorbance at 340 nm.

[5] = Foumani et al., 2011; read-out: Km on glucose; cited from earlier work
[6] = 200 mM H2O2; cited from earlier work
[7] = 200 mM H2O2; cited from earlier work; remark: listed apart in the source

B1: Y300A: GOOX variant with Y300A relative to SEQ ID NO: 1 (protein, listed as Sarocladium strictum)
chain: NSINACLAAADVEFHEEDSEGWEMDGTAFNLRVDYDPVAIAIPRSTEDIAAAVQCGLDAGVQISAKGGGHSYGSYGFGGEDGHLMLELDRMYRVSVDDDNVATIQGGARLGYTALELLDQGNRALTHGTCPAVGIGGHVLGGGYGFATHTHGLTLDWLVGATVVLADASIVHVSKTENADLFWALRGGGGGFAIVSEFEFNTFEAPEIITTYQVTTTWNRKQHVAGLKALQDWAENTMPRELSMRLEINANALNWEGNYFGNAKDLKKVLQPIMKKAGGKSTISKLVETDWYGQINTYLAGADLNITYNYDVHEYFYANSLTAPRLSDEAISAFVDYKFDNSSVRPGRGWWIQWDFHGGKNSALASHSNDETAYAHRDQLWLWQFYDNIYDYENNTSPYPESGFEFMQGFVATIEDTLPEDRKGKYFNYADTTLDKEEAQKLYWRGNLEKLQAIKAKYDPEDVFGNVVSVEPIA
modifications: (1)..(206) FAD-binding domain; (207)..(474) substrate-binding domain
nmol oxidized GlcA Mean [1]: -0.03566 nmol
specific activity on MeGlcA (in words) ([2]; among GOOX variants, FIG. 7): highest specific activity
nmol oxidized MeGlcA Mean ([2]; enzyme 16 nM, 37° C., 1 mM MeGlcA (FIG. 11 legend; b102 says 10 mM), 100 mM Tris pH 8.0 (GOOX variants) or 50 mM sodium acetate pH 5.0 (GO)): 2.5 nmol
activity with MeGlcA as substrate (in words) ([2]; screening, compared with wtGOOX): improved activity over wtGOOX
Km [3]: 21 ± 2 mM
kcat on MeGlcA [3]: 0.0152 ± 0.001 s⁻¹
efficiency on MeGlcA oxidation [4]: 62%
Km [5]: 8.1 mM
activity retained on glucose [6]: more than 50%
activity retained on cellobiose [7]: 100%
